Reference: patent publication US20200038493

Tests used:
[1] = target: UbcH5b (E2 ubiquitin-conjugating enzyme), P62837
[2] = target: GST-tagged PKN1, Q16512
GST-tagged PKN1, Q16512, sequence (Q16512 whole entry, looked up): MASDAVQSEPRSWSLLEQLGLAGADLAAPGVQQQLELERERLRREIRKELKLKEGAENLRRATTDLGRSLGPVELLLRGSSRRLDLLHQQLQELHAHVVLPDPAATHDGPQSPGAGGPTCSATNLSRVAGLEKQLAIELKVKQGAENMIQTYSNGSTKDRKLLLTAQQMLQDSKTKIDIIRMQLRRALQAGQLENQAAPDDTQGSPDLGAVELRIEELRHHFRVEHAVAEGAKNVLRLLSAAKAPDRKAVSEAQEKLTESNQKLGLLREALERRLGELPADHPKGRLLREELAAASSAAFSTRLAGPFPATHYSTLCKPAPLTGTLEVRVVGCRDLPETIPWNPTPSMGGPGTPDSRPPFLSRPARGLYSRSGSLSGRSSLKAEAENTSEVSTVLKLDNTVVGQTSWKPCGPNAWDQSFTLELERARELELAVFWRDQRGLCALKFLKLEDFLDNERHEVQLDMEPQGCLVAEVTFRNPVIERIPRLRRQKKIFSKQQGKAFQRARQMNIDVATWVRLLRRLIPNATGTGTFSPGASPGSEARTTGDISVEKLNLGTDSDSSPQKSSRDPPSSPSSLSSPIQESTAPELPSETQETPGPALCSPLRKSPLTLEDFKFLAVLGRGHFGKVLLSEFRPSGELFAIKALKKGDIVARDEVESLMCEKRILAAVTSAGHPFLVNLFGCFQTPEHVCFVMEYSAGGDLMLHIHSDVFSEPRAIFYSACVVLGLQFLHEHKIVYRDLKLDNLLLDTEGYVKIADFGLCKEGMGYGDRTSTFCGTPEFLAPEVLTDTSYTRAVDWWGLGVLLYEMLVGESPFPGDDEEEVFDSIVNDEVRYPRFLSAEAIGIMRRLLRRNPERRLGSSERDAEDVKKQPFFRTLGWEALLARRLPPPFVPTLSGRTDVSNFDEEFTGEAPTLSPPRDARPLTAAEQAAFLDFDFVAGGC

UbcH5b (E2 ubiquitin-conjugating enzyme), P62837, sequence (P62837 whole entry, looked up): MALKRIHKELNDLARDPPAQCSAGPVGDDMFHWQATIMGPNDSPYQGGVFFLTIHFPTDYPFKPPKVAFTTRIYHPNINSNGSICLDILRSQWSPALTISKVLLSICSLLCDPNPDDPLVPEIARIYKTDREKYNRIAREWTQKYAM

Protein	in vitro ubiquitination assay, anti-HA western blot [1]	other results
recombinant IpaH9.8 from Shigella flexneri (protein) MLPINNNFSLPQNSFYNTISGTYADYFSAWDKWEKQALPGEERDEAVSRLKECLINNSDELRLDRLNLSSLPDNLPAQITLLNVSYNQLTNLPELPVTLKKLYSASNKLSELPVLPPALESLQVQHNELENLPALPDSLLTMNISYNEIVSLPSLPQALKNLRATRNFLTELPAFSEGNNPVVREYFFDRNQISHIPESILNLRNECSIHISDNPLSSHALQALQRLTSSPDYHGPRIYFSMSDGQQNTLHRPLADAVTAWFPENKQSDVSQIWHAFEHEEHANTFSAFLDRLSDTVSARNTSGFREQVAAWLEKLSASAELRQQSFAVAADATESCEDRVALTWNNLRKTLLVHQASEGLFDNDTGALLSLGREMFRLEILEDIARDKVRTLHFVDEIEVYLAFQTMLAEKLQLSTAVKEMRFYGVSGVTANDLRTAEAMVRSREENEFTDWFSLWGPWHAVLKRTEADRWAQAEEQKYEMLENEYPQRVADRLKASGLSGDADAEREAGAQVMRETEQQIYRQLTDEVLALRLFENGSQLHHSHHHHHH	have the ability to remove ubiquitin from ubiquitinated UbcH5b in order to form poly-ubiquitin chains of the HA-tagged ubiquitin	
recombinant IpaH7.8 from Shigella flexneri (protein) MFSVNNTHSSVSCSPSINSNSTSNEHYLRILTEWEKNSSPGEERGIAFNRLSQCFQNQEAVLNLSDLNLTSLPELPKHISALIVENNKLTSLPKLPAFLKELNADNNRLSVIPELPESLTTLSVRSNQLENLPVLPNHLTSLFVENNRLYNLPALPEKLKFLHVYYNRLTTLPDLPDKLEILCAQRNNLVTFPQFSDRNNIRQKEYYFHFNQITTLPESFSQLDSSYRINISGNPLSTRVLQSLQRLTSSPDYHGPQIYFSMSDGQQNTLHRPLADAVTAWFPENKQSDVSQIWHAFEHEEHANTFSAFLDRLSDTVSARNTSGFREQVAAWLEKLSASAELRQQSFAVAADATESCEDRVALTWNNLRKTLLVHQASEGLFDNDTGALLSLGREMFRLEILEDIARDKVRTLHFVDEIEVYLAFQTMLAEKLQLSTAVKEMRFYGVSGVTANDLRTAEAMVRSREENEFTDWFSLWGPWHAVLKRTEADRWAQAEEQKYEMLENEYSQRVADRLKASGLSGDADAEREAGAQVMRETEQQIYRQLTDEVLALRLSENGSRLHHSHHHHHH	have the ability to remove ubiquitin from ubiquitinated UbcH5b in order to form poly-ubiquitin chains of the HA-tagged ubiquitin	
recombinant IpaH1.4 from Shigella flexneri (protein) MIKSTNIQAIGSGIMHQINNVYSLTPLSLPMELTPSCNEFYLKTWSEWEKNGTPGEQRNIAFNRLKICLQNQEAELNLSELDLKTLPDLPPQITTLEIRKNLLTHLPDLPPMLKVIHAQFNQLESLPALPETLEELNAGDNKIKELPFLPENLTHLRVHNNRLHILPLLPPELKLLVVSGNRLDSIPPFPDKLEGLALANNFIEQLPELPFSMNRAVLMNNNLTTLPESVLRLAQNAFVNVAGNPLSGHTMRTLQQITTGPDYSGPRIFFSMGNSATISAPEHSLADAVTAWFPENKQSDVSQIWHAFEHEEHANTFSAFLDRLSDTVSARNTSGFREQVAAWLEKLSASAELRQQSFAVAADATESCEDRVALTWNNLRKTLLVHQASEGLFDNDTGALLSLGREMFRLEILEDIARDKVRTLHFVDEIEVYLAFQTMLAEKLQLSTAVKEMRFYGVSGVTANDLRTAEAMVRSREENEFTDWFSLWGPWHAVLKRTEADRWAQAEEQKYEMLENEYSQRVADRLKASGLSGDADAEREAGAQVMRETEQQIYRQLTDEVLALRLSENGSNHIAHHHHHH	have the ability to remove ubiquitin from ubiquitinated UbcH5b in order to form poly-ubiquitin chains of the HA-tagged ubiquitin	
recombinant SspH1 of Salmonella enterica serovar Typhimurium with C-terminal 6x His-tag (protein) MFNIRNTQPSVSMQAIAGAAAPEASPEEIVWEKIQVFFPQENYEEAQQCLAELCHPARGMLPDHISSQFARLKALTFPAWEENIQCNRDGINQFCILDAGSKEILSITLDDAGNYTVNCQGYSEAHDFIMDTEPGEECTEFAEGASGTSLRPATTVSQKAAEYDAVWSKWERDAPAGESPGRAAVVQEMRDCLNNGNPVLNVGASGLTTLPDRLPPHITTLVIPDNNLTSLPELPEGLRELEVSGNLQLTSLPSLPQGLQKLWAYNNWLASLPTLPPGLGDLAVSNNQLTSLPEMPPALRELRVSGNNLTSLPALPSGLQKLWAYNNRLTSLPEMSPGLQELDVSHNQLTRLPQSLTGLSSAARVYLDGNPLSVRTLQALRDIIGHSGIRIHFDMAGPSVPREARALHLAVADWLTSAREGEAAQADRWQAFGLEDNAAAFSLVLDRLRETENFKKDAGFKAQISSWLTQLAEDAALRAKTFAMATEATSTCEDRVTHALHQMNNVQLVHNAEKGEYDNNLQGLVSTGREMFRLATLEQIAREKAGTLALVDDVEVYLAFQNKLKESLELTSVTSEMRFFDVSGVTVSDLQAAELQVKTAENSGFSKWILQWGPLHSVLERKVPERFNALREKQISDYEDTYRKLYDEVLKSSGLVDDTDAERTIGVSAMDSAKKEFLDGLRALVDEVLGSYLTARWRLNHHHHHH		in vitro ubiquitination assay, anti-PKN1 immunoblot [2]: When the reaction was performed in the presence of SspH1 and PKN1 in vitro, anti-PKN1 antibodies detected an additional species migrating at a size >148 kDa; in vitro ubiquitination assay, immunoblots with anti-HA, anti-PKN1 and anti-His antibodies [2]: recombinant SspH1 ubiquitinates PKN1 in vitro; in vitro ubiquitination assay, western blot [1]: recombinant SspH1 has the ability to remove ubiquitin from ubiquitinated UbcH5B, to autoubiquitinate, and to polyubiquitinate Ha-tagged ubiquitin
recombinant IpaH4.5 from Shigella flexneri (protein) MKPINNHSFFRSLCGLSCISRLSVEEQCTRDYHRIWDDWAREGTTTENRIQAVRLLKICLDTREPVLNLSLLKLRSLPPLPLHIRELNISNNELISLPENSPLLTELHVNGNNLNILPTLPSQLIKLNISFNRNLSCLPSLPPYLQSLSARFNSLETLPELPSTLTILRIEGNRLTVLPELPHRLQELFVSGNRLQELPEFPQSLKYLKVGENQLRRLSRLPQELLALDVSNNLLTSLPENIITLPICTNVNISGNPLSTHVLQSLQRLTSSPDYHGPQIYFSMSDGQQNTLHRPLADAVTAWFPENKQSDVSQIWHAFEHEEHANTFSAFLDRLSDTVSARNTSGFREQVAAWLEKLSASAELRQQSFAVAADATESCEDRVALTWNNLRKTLLVHQASEGLFDNDTGALLSLGREMFRLEILEDIARDKVRTLHFVDEIEVYLAFQTMLAEKLQLSTAVKEMRFYGVSGVTANDLRTAEAMVRSREENEFTDWFSLWGPWHAVLKRTEADRWAQAEEQKYEMLENEYSQRVADRLKASGLSGDADAEREAGAQVMRETEQQIYRQLTDEVLAHHHHHH	have the ability to remove ubiquitin from ubiquitinated UbcH5b in order to form poly-ubiquitin chains of the HA-tagged ubiquitin	
recombinant SlrP from Salmonella enterica serovar Typhimurium (protein) MFNITNIQSTARHQSISNEASTEVPLKEEIWNKISAFFSSEHQVEAQNCIAYLCHPPETASPEEIKSKFECLRMLAFPAYADNIQYSRGGADQYCILSENSQEILSIVFNTEGYTVEGGGKSVTYTRVTESEQASSASGSKDAVNYELIWSEWVKEAPAKEAANREEAVQRMRDCLKNNKTELRLKILGLTTIPAYIPEQITTLILDNNELKSLPENLQGNIKTLYANSNQLTSIPATLPDTIQEMELSINRITELPERLPSALQSLDLFHNKISCLPENLPEELRYLSVYDNSIRTLPAHLPSEITHLNVQSNSLTALPETLPPGLKTLEAGENALTSLPASLPPELQVLDVSKNQITVLPETLPPTITTLDVSRNALTNLPENLPAALQIMQASRNNLVRLPESLPHFRGEGPQPTRIIVEYNPFSERTIQNMQRLMSSVDYQGPRVLFAMGDFSIVRVTRPLHQAVQGWLTSLEEEDVNQWRAFEAEANAAAFSGFLDYLGDTQNTRHPDFKEQVSAWLMRLAEDSALRETVFIIAMNATISCEDRVTLAYHQMQEATLVHDAERGAFDSHLAELIMAGREIFRLEQIESLAREKVKRLFFIDEVEVFLGFQNQLRESLSLTTMTRDMRFYNVSGITESDLDEAEIRIKMAENRDFHKWFALWGPWHKVLERIAPEEWREMMAKRDECIETDEYQSRVNAELEDLRIADDSDAERTTEVQMDAERAIGIKIMEEINQTLFTEIMENILLKKEVSSLMSAYWRHHHHHH	have the ability to remove ubiquitin from ubiquitinated UbcH5b in order to form poly-ubiquitin chains of the HA-tagged ubiquitin	
recombinant IpaH2.5 from Shigella flexneri (protein) MIKSTNIQVIGSGIMHQINNIHSLTLFSLPVSLSPSCNEYYLKVWSEWEKNGTPGEQRNIAFNRLKICLQNQEAELNLSELDLKTLPDLPPQITTLEIRKNLLTHLPDLPPMLKVIHAQFNQLESLPALPETLEELNAGDNKIKELPFLPENLTHLRVHNNRLHILPLLPPELKLLVVSGNRLDSIPPFPDKLEGLALANNFIEQLPELPFSMNRAVLMNNNLTTLPESVLRLAQNAFVNVAGNPLSGHTMRTLQQITTGPDYSGPRIFFSMGNSATISAPEHSLADAVTAWFPENKQSDVSQIWHAFEHEEHANTFSAFLDRLSDTVSARNTSGFREQVAAWLEKLSASAELRQQSFAVAADATESCEDRVALTWNNLRKTLLVHQASEGLFDNDTGALLSLGREMFRLEILEDIARDKVRTLHFVDEIEVYLAFQTMLAEKLQLSTAVKEMRFYGVSGVTANDLRTAEAMVRSREENEFTDWFSLWGPWHAVLKRTEADRWAQAEEQKYEMLENEYSQRVADRLKASGLSGDADAEREAGAQVMRETEQQIYRQLTDEVLAHHHHHH	have the ability to remove ubiquitin from ubiquitinated UbcH5b in order to form poly-ubiquitin chains of the HA-tagged ubiquitin	
